Reference: PMC8958351, “Ubiquitylation of cyclin C by HACE1 regulates cisplatin‐associated sensitivity in gastric cancer” (Clinical and Translational Medicine, 2022)

Columns and labels:
Experiment in all cases: pull-down; GST pull-down; purified GST-HACE1 proteins incubated with purified cyclin C-MBP-His for 6 h at 4°C in 50 mM Tris-Cl, 200 mM NaCl, 1 mM EDTA, 1% NP-40, 1 mM DTT, 10 mM MgCl2, 10 μg/ml BSA, pH 8.0; GST pulled down, cyclin C immunoblotted
Conditions in all cases: both partners purified
[1] = molecular target: T1, GST‐HACE1 truncation, amino acids 258–909 (human, UniProt Q8IYU2 258-909)
T1 sequence (looked up): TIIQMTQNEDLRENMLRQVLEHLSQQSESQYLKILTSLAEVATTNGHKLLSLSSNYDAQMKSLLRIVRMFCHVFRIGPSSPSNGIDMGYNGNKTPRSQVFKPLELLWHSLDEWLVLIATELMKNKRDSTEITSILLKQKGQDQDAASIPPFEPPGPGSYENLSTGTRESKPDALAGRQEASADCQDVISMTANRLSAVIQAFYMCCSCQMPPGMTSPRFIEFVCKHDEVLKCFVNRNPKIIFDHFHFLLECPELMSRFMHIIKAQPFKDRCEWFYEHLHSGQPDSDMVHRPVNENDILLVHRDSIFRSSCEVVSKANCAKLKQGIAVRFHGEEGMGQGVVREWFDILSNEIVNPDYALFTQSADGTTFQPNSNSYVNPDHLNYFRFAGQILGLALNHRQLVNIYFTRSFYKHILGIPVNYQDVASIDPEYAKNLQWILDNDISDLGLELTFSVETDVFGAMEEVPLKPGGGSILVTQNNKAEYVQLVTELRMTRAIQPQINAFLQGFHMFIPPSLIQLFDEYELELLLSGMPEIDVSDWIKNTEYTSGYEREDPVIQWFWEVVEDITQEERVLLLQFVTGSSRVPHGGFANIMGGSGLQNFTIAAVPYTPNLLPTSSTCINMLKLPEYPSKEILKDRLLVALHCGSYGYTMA

GST‐HACE1 = molecular target: T2, GST‐HACE1 (human, UniProt Q8IYU2 1-909)
T2 construct: HACE1, human; the cDNA encoding HACE1 cloned into pGEX4T-1; also called recombinant glutathione (GST)‐tagged HACE1; GST‐fused HACE1
T2 sequence (looked up): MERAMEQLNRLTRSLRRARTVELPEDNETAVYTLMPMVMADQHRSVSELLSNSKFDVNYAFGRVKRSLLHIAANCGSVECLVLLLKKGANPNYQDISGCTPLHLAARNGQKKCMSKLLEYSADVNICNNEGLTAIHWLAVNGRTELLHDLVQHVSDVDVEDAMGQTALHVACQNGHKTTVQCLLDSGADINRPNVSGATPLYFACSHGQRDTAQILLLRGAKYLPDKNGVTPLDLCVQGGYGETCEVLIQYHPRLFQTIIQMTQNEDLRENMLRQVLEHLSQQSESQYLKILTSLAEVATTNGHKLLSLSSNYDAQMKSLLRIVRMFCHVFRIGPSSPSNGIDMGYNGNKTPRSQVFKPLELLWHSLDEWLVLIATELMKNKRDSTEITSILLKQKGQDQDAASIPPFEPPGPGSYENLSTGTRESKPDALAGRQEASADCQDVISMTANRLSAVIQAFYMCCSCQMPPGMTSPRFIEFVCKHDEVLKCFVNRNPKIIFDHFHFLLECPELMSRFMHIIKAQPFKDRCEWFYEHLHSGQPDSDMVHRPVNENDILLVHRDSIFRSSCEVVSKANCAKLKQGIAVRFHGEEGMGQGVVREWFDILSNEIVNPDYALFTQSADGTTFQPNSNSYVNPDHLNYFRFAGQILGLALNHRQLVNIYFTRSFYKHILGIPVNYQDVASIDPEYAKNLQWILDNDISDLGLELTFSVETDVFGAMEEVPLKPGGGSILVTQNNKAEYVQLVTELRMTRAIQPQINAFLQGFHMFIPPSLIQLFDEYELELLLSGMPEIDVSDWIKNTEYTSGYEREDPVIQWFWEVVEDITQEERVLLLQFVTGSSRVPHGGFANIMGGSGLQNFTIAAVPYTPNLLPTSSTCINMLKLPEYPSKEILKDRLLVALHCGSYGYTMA

[2] = molecular target: T3, GST‐HACE1 truncation, amino acids 547–909 (human, UniProt Q8IYU2 547-909)
T3 sequence (looked up): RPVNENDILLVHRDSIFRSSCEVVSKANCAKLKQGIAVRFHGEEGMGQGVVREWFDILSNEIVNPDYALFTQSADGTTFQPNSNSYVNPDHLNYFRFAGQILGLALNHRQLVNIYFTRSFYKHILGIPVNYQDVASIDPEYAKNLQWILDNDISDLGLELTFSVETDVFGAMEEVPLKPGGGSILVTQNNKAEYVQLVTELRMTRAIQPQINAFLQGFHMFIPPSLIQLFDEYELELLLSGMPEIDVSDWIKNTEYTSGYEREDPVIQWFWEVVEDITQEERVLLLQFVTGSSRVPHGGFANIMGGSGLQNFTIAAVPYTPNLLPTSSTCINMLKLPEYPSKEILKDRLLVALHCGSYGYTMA

[3] = molecular target: T4, GST‐HACE1 truncation, amino acids 1–546 (human, UniProt Q8IYU2 1-546)
T4 sequence (looked up): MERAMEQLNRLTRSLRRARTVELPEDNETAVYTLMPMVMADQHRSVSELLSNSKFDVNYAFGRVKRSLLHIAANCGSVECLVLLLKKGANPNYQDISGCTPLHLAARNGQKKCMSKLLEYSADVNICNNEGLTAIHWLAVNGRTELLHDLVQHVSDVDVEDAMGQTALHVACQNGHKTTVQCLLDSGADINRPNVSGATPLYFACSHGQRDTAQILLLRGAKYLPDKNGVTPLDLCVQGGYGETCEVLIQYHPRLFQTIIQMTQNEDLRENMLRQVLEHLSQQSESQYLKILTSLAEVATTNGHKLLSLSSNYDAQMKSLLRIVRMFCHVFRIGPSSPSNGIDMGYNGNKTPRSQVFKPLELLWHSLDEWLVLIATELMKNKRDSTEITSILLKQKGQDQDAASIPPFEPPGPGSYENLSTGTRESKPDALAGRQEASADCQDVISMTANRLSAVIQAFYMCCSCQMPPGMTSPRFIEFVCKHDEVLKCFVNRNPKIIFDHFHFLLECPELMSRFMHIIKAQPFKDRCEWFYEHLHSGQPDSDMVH

Measured: binding result

B1: MBP‐His‐tagged cyclin C (natural protein, human)
chain: MAGNFWQSSHYLQWILDKQDLLKERQKDLKFLSEEEYWKLQIFFTNVIQALGEHLKLRQQVIATATVYFKRFYARYSLKSIDPVLMAPTCVFLASKVEEFGVVSNTRLIAAATSVLKTRFSYAFPKEFPYRMNHILECEFYLLELMDCCLIVYHPYRPLLQYVQDMGQEDMLLPLAWRIVNDTYRTDLCLLYPPFMIALACLHVACVVQQKDARQWFAELSVDMEKILEIIRVILKLYEQWKNFDERKEMATILSKMPKPKPPPNSEGEQGPNGSQNSSYSQS
notes: Cyclin C, human; the cDNA of CCNC cloned into pSJ8 (pET21a derivative, MBP-His fusion vector); also called cyclin C‐MBP‐His; source: Escherichia coli BL21, purified (Ni‐NTA agarose beads)
binds: [1] | GST‐HACE1 | [2] | [3]
